Laboratory results from patent US11965039B2, “Compstatin analogues and their medical uses” (priority 2018, dated 2024).
Starred links: 1 amine or outer side, 2 acyl side, 3 side chain; linkers in the order of their positions; H or OH if unused. Positions of bridges follow the written chain, without caps; N, C: chain ends. Non-standard residues stand in square brackets, D forms with d. Groups on a side chain read outwards from the residue. *: point of attachment. Trp(1-Me) = Cn1cc(C[C@H](N)C(=O)O)c2ccccc21; C18 diacid = O=C(O)CCCCCCCCCCCCCCCCC(=O)*; C16 diacid = O=C(O)CCCCCCCCCCCCCCC(=O)*; γGlu = O=C(O)[C@H](CCC(=O)[*:2])N[*:1]; AEEA = NCCOCCOCC(=O)O; Sar = CNCC(=O)O

Legend:
[1] = biological target: T1, Human C3 (Complement tech cat #A113c) (human, UniProt P01024 23-1663); experiment: cell-based or functional assay
[2] = biological target: T1, Human C3 (Complement tech cat #A113c); experiment: SPR (Biacore T200), human C3 immobilised, peptide injected, 1:1 fit
Description: Surface plasmon resonance (SPR) was used to characterize peptides with respect to their binding affinity (Kd) for C3. Human C3 (Complement tech cat #A113c) was immobilised on individual flow cells of CM5 sensor chips (GE Healthcare) using standard amine coupling to a density of approximately 3000 resonance units (RU) in a buffer consisting of 10 mM phosphate pH 7.4, 150 mM NaCl, 0.05% Tween20.
For interaction experiments a multi-cycle experiment approach was used and performed using a BiacoreT200™ instrument (GE Healthcare) at 25° C. Peptides were injected in increasing concentration series (6-8 different concentrations) for 60-120 sat a flow rate of 30 µL/min in a buffer consisting of 10 mM Tris buffer at pH 7.4, with 150 mM NaCl and 0.05% Tween20. This was followed by a dissociation period for up to 10 min. The C3 surface was regenerated between runs by a 45 s injection of 3 M MgCl_2.

T1 sequence (P01024 23-1663 limits assumed): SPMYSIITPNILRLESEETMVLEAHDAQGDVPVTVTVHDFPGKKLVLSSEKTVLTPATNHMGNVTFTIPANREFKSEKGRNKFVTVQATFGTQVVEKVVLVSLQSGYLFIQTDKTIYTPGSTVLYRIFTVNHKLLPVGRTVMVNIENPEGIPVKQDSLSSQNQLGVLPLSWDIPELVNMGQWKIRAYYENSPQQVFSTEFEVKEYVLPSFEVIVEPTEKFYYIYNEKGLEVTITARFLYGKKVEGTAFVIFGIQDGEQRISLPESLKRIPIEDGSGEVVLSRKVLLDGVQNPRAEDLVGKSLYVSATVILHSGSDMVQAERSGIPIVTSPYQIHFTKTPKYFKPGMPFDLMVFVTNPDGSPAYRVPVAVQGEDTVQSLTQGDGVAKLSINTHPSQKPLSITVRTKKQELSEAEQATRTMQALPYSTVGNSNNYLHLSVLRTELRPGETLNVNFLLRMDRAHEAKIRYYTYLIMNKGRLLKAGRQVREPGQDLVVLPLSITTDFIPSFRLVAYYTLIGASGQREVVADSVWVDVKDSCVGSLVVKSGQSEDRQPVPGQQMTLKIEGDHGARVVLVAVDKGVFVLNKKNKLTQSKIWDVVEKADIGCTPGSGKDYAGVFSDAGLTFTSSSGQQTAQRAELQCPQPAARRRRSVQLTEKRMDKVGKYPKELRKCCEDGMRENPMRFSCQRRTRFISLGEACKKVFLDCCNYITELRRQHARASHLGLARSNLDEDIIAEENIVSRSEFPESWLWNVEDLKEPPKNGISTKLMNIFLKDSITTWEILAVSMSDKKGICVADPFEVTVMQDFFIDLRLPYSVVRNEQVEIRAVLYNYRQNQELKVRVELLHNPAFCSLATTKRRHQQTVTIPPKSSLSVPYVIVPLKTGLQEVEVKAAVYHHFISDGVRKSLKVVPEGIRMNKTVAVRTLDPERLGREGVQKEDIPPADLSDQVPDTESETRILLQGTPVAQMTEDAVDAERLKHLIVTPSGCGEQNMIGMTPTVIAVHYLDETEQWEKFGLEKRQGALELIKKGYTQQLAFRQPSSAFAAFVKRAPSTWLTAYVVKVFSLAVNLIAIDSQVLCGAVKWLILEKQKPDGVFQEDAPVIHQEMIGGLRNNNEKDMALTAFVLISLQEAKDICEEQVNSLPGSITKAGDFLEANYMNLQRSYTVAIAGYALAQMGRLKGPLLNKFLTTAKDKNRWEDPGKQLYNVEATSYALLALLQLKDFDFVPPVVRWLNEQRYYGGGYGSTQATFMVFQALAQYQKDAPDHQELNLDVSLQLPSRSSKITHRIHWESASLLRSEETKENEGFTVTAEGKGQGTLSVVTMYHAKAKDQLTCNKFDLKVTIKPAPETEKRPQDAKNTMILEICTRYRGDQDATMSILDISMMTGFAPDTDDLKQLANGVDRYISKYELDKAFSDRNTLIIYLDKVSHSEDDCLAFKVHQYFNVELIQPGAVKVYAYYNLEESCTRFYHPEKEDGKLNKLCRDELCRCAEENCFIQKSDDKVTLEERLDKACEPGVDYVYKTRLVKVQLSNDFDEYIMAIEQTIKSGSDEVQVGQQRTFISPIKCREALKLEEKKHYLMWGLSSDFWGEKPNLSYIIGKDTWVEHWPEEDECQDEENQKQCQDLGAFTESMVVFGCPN

Binder	inhibition of hemolysis IC50 [1] [nM]	Kd [2] [nM]
Ac-FCI[Trp(1-Me)]QDWGEHRCTGAESK([AEEA-AEEA-γGlu-C16 diacid])-NH2 (disulfide 2-12; SMILES CC[C@H](C)[C@@H]1NC(=O)[C@@H](NC(=O)[C@H](Cc2ccccc2)NC(C)=O)CSSC[C@@H](C(=O)N[C@H](C(=O)NCC(=O)N[C@@H](C)C(=O)N[C@@H](CCC(=O)O)C(=O)N[C@@H](CO)C(=O)N[C@@H](CCCCNC(=O)COCCOCCNC(=O)COCCOCCNC(=O)CC[C@H](NC(=O)CCCCCCCCCCCCCCC(=O)O)C(=O)O)C(N)=O)[C@@H](C)O)NC(=O)[C@H](CCCNC(=N)N)NC(=O)[C@H](Cc2c[nH]cn2)NC(=O)[C@H](CCC(=O)O)NC(=O)CNC(=O)[C@H](Cc2c[nH]c3ccccc23)NC(=O)[C@H](CC(=O)O)NC(=O)[C@H](CCC(N)=O)NC(=O)[C@H](Cc2cn(C)c3ccccc23)NC1=O) [Compound 102]	< 100	1.7
Ac-EGSAFCI[Trp(1-Me)]QDWGEHRC[Sar]E-NH2 (disulfide 6-16; SMILES CC[C@H](C)[C@@H]1NC(=O)[C@@H](NC(=O)[C@H](Cc2ccccc2)NC(=O)[C@H](C)NC(=O)[C@H](CO)NC(=O)CNC(=O)[C@H](CCC(=O)O)NC(C)=O)CSSC[C@@H](C(=O)N(C)CC(=O)N[C@@H](CCC(=O)O)C(N)=O)NC(=O)[C@H](CCCNC(=N)N)NC(=O)[C@H](Cc2c[nH]cn2)NC(=O)[C@H](CCC(=O)O)NC(=O)CNC(=O)[C@H](Cc2c[nH]c3ccccc23)NC(=O)[C@H](CC(=O)O)NC(=O)[C@H](CCC(N)=O)NC(=O)[C@H](Cc2cn(C)c3ccccc23)NC1=O) [Compound 53]	< 100	1.4
{C16 diacid}-EGSEYCI[Trp(1-Me)]QDWGEHRC[Sar]E-NH2 (disulfide 6-16; also: places 15-carboxy-pentadecanoyl on side chain of Glu1, mods on N-terminus) [Compound 107]	< 100	6.1
Ac-EGSAYCI[Trp(1-Me)]QDWGEHRC[Sar]E-NH2 (disulfide 6-16; SMILES CC[C@H](C)[C@@H]1NC(=O)[C@@H](NC(=O)[C@H](Cc2ccc(O)cc2)NC(=O)[C@H](C)NC(=O)[C@H](CO)NC(=O)CNC(=O)[C@H](CCC(=O)O)NC(C)=O)CSSC[C@@H](C(=O)N(C)CC(=O)N[C@@H](CCC(=O)O)C(N)=O)NC(=O)[C@H](CCCNC(=N)N)NC(=O)[C@H](Cc2c[nH]cn2)NC(=O)[C@H](CCC(=O)O)NC(=O)CNC(=O)[C@H](Cc2c[nH]c3ccccc23)NC(=O)[C@H](CC(=O)O)NC(=O)[C@H](CCC(N)=O)NC(=O)[C@H](Cc2cn(C)c3ccccc23)NC1=O) [Compound 54]	< 100	3
Ac-ICIWQDWGEHRCTEGK([γGlu-C16 diacid])-NH2 (disulfide 2-12; SMILES CC[C@H](C)[C@H](NC(C)=O)C(=O)N[C@H]1CSSC[C@@H](C(=O)N[C@H](C(=O)N[C@@H](CCC(=O)O)C(=O)NCC(=O)N[C@@H](CCCCNC(=O)CC[C@H](NC(=O)CCCCCCCCCCCCCCC(=O)O)C(=O)O)C(N)=O)[C@@H](C)O)NC(=O)[C@H](CCCNC(=N)N)NC(=O)[C@H](Cc2c[nH]cn2)NC(=O)[C@H](CCC(=O)O)NC(=O)CNC(=O)[C@H](Cc2c[nH]c3ccccc23)NC(=O)[C@H](CC(=O)O)NC(=O)[C@H](CCC(N)=O)NC(=O)[C@H](Cc2c[nH]c3ccccc23)NC(=O)[C@H]([C@@H](C)CC)NC1=O) [Compound 92]	< 1000	
Ac-SE[Sar]CI[Trp(1-Me)]QEWGEHRC[Sar]EA-NH2 (disulfide 4-14; SMILES CC[C@H](C)[C@@H]1NC(=O)[C@@H](NC(=O)CN(C)C(=O)[C@H](CCC(=O)O)NC(=O)[C@H](CO)NC(C)=O)CSSC[C@@H](C(=O)N(C)CC(=O)N[C@@H](CCC(=O)O)C(=O)N[C@@H](C)C(N)=O)NC(=O)[C@H](CCCNC(=N)N)NC(=O)[C@H](Cc2c[nH]cn2)NC(=O)[C@H](CCC(=O)O)NC(=O)CNC(=O)[C@H](Cc2c[nH]c3ccccc23)NC(=O)[C@H](CCC(=O)O)NC(=O)[C@H](CCC(N)=O)NC(=O)[C@H](Cc2cn(C)c3ccccc23)NC1=O) [Compound 90]	< 250	
H-[dY][Sar]CI[Trp(1-Me)]QDWGEHRCTEA-NH2 (disulfide 3-13; SMILES CC[C@H](C)[C@@H]1NC(=O)[C@@H](NC(=O)CN(C)C(=O)[C@H](N)Cc2ccc(O)cc2)CSSC[C@@H](C(=O)N[C@H](C(=O)N[C@@H](CCC(=O)O)C(=O)N[C@@H](C)C(N)=O)[C@@H](C)O)NC(=O)[C@H](CCCNC(=N)N)NC(=O)[C@H](Cc2c[nH]cn2)NC(=O)[C@H](CCC(=O)O)NC(=O)CNC(=O)[C@H](Cc2c[nH]c3ccccc23)NC(=O)[C@H](CC(=O)O)NC(=O)[C@H](CCC(N)=O)NC(=O)[C@H](Cc2cn(C)c3ccccc23)NC1=O) [Compound 91]	< 100	
Ac-ICI[Trp(1-Me)]QDWGEHRCT-NH2 (disulfide 2-12; SMILES CC[C@H](C)[C@H](NC(C)=O)C(=O)N[C@H]1CSSC[C@@H](C(=O)N[C@H](C(N)=O)[C@@H](C)O)NC(=O)[C@H](CCCNC(=N)N)NC(=O)[C@H](Cc2c[nH]cn2)NC(=O)[C@H](CCC(=O)O)NC(=O)CNC(=O)[C@H](Cc2c[nH]c3ccccc23)NC(=O)[C@H](CC(=O)O)NC(=O)[C@H](CCC(N)=O)NC(=O)[C@H](Cc2cn(C)c3ccccc23)NC(=O)[C@H]([C@@H](C)CC)NC1=O) [Compound 4]	< 100	1.5
Ac-EGSAYCI[Trp(1-Me)]QDWGEHRC[Sar]EGK([AEEA-AEEA-γGlu-C16 diacid])-NH2 (disulfide 6-16; SMILES CC[C@H](C)[C@@H]1NC(=O)[C@@H](NC(=O)[C@H](Cc2ccc(O)cc2)NC(=O)[C@H](C)NC(=O)[C@H](CO)NC(=O)CNC(=O)[C@H](CCC(=O)O)NC(C)=O)CSSC[C@@H](C(=O)N(C)CC(=O)N[C@@H](CCC(=O)O)C(=O)NCC(=O)N[C@@H](CCCCNC(=O)COCCOCCNC(=O)COCCOCCNC(=O)CC[C@H](NC(=O)CCCCCCCCCCCCCCC(=O)O)C(=O)O)C(N)=O)NC(=O)[C@H](CCCNC(=N)N)NC(=O)[C@H](Cc2c[nH]cn2)NC(=O)[C@H](CCC(=O)O)NC(=O)CNC(=O)[C@H](Cc2c[nH]c3ccccc23)NC(=O)[C@H](CC(=O)O)NC(=O)[C@H](CCC(N)=O)NC(=O)[C@H](Cc2cn(C)c3ccccc23)NC1=O) [Compound 104]	< 100	34
Ac-SE[Sar]CI[Trp(1-Me)]QEW[Sar]EHRCTEA-NH2 (disulfide 4-14; SMILES CC[C@H](C)[C@@H]1NC(=O)[C@@H](NC(=O)CN(C)C(=O)[C@H](CCC(=O)O)NC(=O)[C@H](CO)NC(C)=O)CSSC[C@@H](C(=O)N[C@H](C(=O)N[C@@H](CCC(=O)O)C(=O)N[C@@H](C)C(N)=O)[C@@H](C)O)NC(=O)[C@H](CCCNC(=N)N)NC(=O)[C@H](Cc2c[nH]cn2)NC(=O)[C@H](CCC(=O)O)NC(=O)CN(C)C(=O)[C@H](Cc2c[nH]c3ccccc23)NC(=O)[C@H](CCC(=O)O)NC(=O)[C@H](CCC(N)=O)NC(=O)[C@H](Cc2cn(C)c3ccccc23)NC1=O) [Compound 89]	< 100	
Ac-SAYCI[Trp(1-Me)]QDWGEHRC[Sar]EK([γGlu-Gly-γGlu-C18 diacid])-NH2 (disulfide 4-14; SMILES CC[C@H](C)[C@@H]1NC(=O)[C@@H](NC(=O)[C@H](Cc2ccc(O)cc2)NC(=O)[C@H](C)NC(=O)[C@H](CO)NC(C)=O)CSSC[C@@H](C(=O)N(C)CC(=O)N[C@@H](CCC(=O)O)C(=O)N[C@@H](CCCCNC(=O)CC[C@H](NC(=O)CNC(=O)CC[C@H](NC(=O)CCCCCCCCCCCCCCCCC(=O)O)C(=O)O)C(=O)O)C(N)=O)NC(=O)[C@H](CCCNC(=N)N)NC(=O)[C@H](Cc2c[nH]cn2)NC(=O)[C@H](CCC(=O)O)NC(=O)CNC(=O)[C@H](Cc2c[nH]c3ccccc23)NC(=O)[C@H](CC(=O)O)NC(=O)[C@H](CCC(N)=O)NC(=O)[C@H](Cc2cn(C)c3ccccc23)NC1=O) [Compound 106]	< 250	5.4
Ac-ICIWQDWGEHRCTEGK([AEEA-AEEA-γGlu-C16 diacid])-NH2 (disulfide 2-12; SMILES CC[C@H](C)[C@H](NC(C)=O)C(=O)N[C@H]1CSSC[C@@H](C(=O)N[C@H](C(=O)N[C@@H](CCC(=O)O)C(=O)NCC(=O)N[C@@H](CCCCNC(=O)COCCOCCNC(=O)COCCOCCNC(=O)CC[C@H](NC(=O)CCCCCCCCCCCCCCC(=O)O)C(=O)O)C(N)=O)[C@@H](C)O)NC(=O)[C@H](CCCNC(=N)N)NC(=O)[C@H](Cc2c[nH]cn2)NC(=O)[C@H](CCC(=O)O)NC(=O)CNC(=O)[C@H](Cc2c[nH]c3ccccc23)NC(=O)[C@H](CC(=O)O)NC(=O)[C@H](CCC(N)=O)NC(=O)[C@H](Cc2c[nH]c3ccccc23)NC(=O)[C@H]([C@@H](C)CC)NC1=O) [Compound 93]	< 500	
